B1: HDV Ribozyme (parent)
chain: GGCCGGCAUGGUCCCAGCCUCCUCGCUGGCGCCGGCUGGGCAACAUUCCGAGGGGACCGUCCCCUCGGUAAUGGCGAAUGGGACCCA

Variants of: B1
Experiment: self-cleavage, relative activity (ratio to wild type); higher = more cleavage; co-transcriptional

Going from C19U C85G to U20A C26G, the self-cleavage falls from 0.102 to 0.

First: C21A C49A
Second: C21A C49U
The self-cleavage of the first is higher: 0.157 for the first, 0.0272 for the second.

Compared with U20C G73U, C19U G81U is higher in self-cleavage: 0.0875 for the first, 0.131 for the second.

First: U20A G74C
Second: U20C U27G
The self-cleavage of the first is lower: 0.0396 for the first, 0.185 for the second.

U20C C24A and C21A G68C are the same in self-cleavage: 0 for the first, 0 for the second.

Going from U20C G34C to U20C A78U, the self-cleavage rises from 0 to 0.111.

Compared with U20C U47A, C19G C41G is lower in self-cleavage: 0.133 for the first, 0.0573 for the second.

C21G C33A and C21G C33U are the same in self-cleavage: 0 for the first, 0 for the second.

Compared with C21G C33G, C21G G73C is higher in self-cleavage: 0.101 for the first, 0.17 for the second.

First: C21G G73U
Second: C19U C61U
The self-cleavage of the first is lower: 0.026 for the first, 0.0898 for the second.

First: C19G C64A
Second: C21G A43C
The self-cleavage of the first is higher: 0.0528 for the first, 0 for the second.

Compared with C21G A43U, C21G A43G is higher in self-cleavage: 0 for the first, 0.128 for the second.

First: U20C C21A
Second: U20G G59C
The self-cleavage of the first is lower: 0.0475 for the first, 0.361 for the second.

First: U20G G59U
Second: C21G C84U
The self-cleavage of the first is higher: 0.231 for the first, 0.0231 for the second.

Going from C21G C84G to C21G G34U, the self-cleavage rises from 0 to 0.0604.

First: C21G G31U
Second: C21G G31C
The self-cleavage of the first is lower: 0 for the first, 0.147 for the second.

Compared with U20C C48A, U20C G81U is lower in self-cleavage: 0.341 for the first, 0 for the second.

First: U20A A45G
Second: C21A U27G
The self-cleavage of the first is lower: 0 for the first, 0.0639 for the second.

First: C19U G28A
Second: C19U U47G
The self-cleavage of the first is higher: 0.956 for the first, 0.0906 for the second.

First: C21G A70U
Second: U20G C21U
The self-cleavage of the first is lower: 0.111 for the first, 0.26 for the second.

First: C21A C62A
Second: C19G C44U
The self-cleavage of the first is higher: 0.185 for the first, 0.0563 for the second.

Compared with C19G C44A, C19G C44G is higher in self-cleavage: 0 for the first, 0.0959 for the second.

First: C19G C48A
Second: C19G C48U
The self-cleavage of the first is higher: 0.115 for the first, 0.0733 for the second.

Going from C21A C41A to C21A C66A, the self-cleavage falls from 0.121 to 0.0755.

Compared with C21A C66U, C19U C24G is lower in self-cleavage: 0.0683 for the first, 0.0475 for the second.

Going from U20G C64U to C19G C30A, the self-cleavage falls from 0.291 to 0.0225.

First: C19G C30G
Second: C19U U20A
The self-cleavage of the first is lower: 0.0739 for the first, 0.149 for the second.

Compared with C19U C41A, C19U C41G is higher in self-cleavage: 0.0804 for the first, 0.116 for the second.

Going from U20G A71U to C21A G34U, the self-cleavage falls from 0.151 to 0.0647.

Going from U20C C36U to C19U A43C, the self-cleavage falls from 0.131 to 0.111.

Compared with C19U A43U, U20C C62A is lower in self-cleavage: 0.104 for the first, 0 for the second.

Going from C19G G81U to U20A C32U, the self-cleavage falls from 0.0997 to 0.0811.

First: U20A G68C
Second: U20C C61U
The self-cleavage of the first is higher: 0.0978 for the first, 0.0723 for the second.

First: U20C U46G
Second: C19G C36U
The self-cleavage of the first is lower: 0 for the first, 0.0767 for the second.

Going from C19U G29U to C21A U60C, the self-cleavage falls from 0.153 to 0.0739.

Compared with C21A U60A, U20G U60C is higher in self-cleavage: 0.0361 for the first, 0.111 for the second.

First: C21G U46A
Second: C21A U65A
The self-cleavage of the first is higher: 0.147 for the first, 0.0405 for the second.

Compared with C19U G54U, C19U G54A is higher in self-cleavage: 0.174 for the first, 0.179 for the second.

Compared with C21A G28A, C19U A71U is higher in self-cleavage: 0.0268 for the first, 0.13 for the second.

Compared with U20A C62U, C19G C75A is higher in self-cleavage: 0.0475 for the first, 0.0773 for the second.

First: U20A G53U
Second: U20C C32G
The self-cleavage of the first is lower: 0.0959 for the first, 0.138 for the second.

Going from U20G G74U to C21G C62A, the self-cleavage rises from 0 to 0.119.

Going from C21G C62U to C19U A45G, the self-cleavage rises from 0 to 0.111.

Compared with U20C U37G, U20C U37A is lower in self-cleavage: 0.185 for the first, 0.107 for the second.

Compared with C19G G25U, U20A G31C is lower in self-cleavage: 0.0923 for the first, 0.0475 for the second.

Going from C21G A87U to C21G A87C, the self-cleavage falls from 0.0723 to 0.0594.

First: C21G A87G
Second: C19U U27C
The self-cleavage of the first is lower: 0.0462 for the first, 0.135 for the second.

Going from C19U U27A to C21A G59C, the self-cleavage falls from 0.332 to 0.116.

Compared with C21A G40A, U20G U69G is higher in self-cleavage: 0.0647 for the first, 0.0831 for the second.

Going from C21G G82C to C21G G82A, the self-cleavage rises from 0.0437 to 0.101.

Going from C21G G82U to C21A U72G, the self-cleavage rises from 0.106 to 0.166.

Going from C21G G76A to U20A G50A, the self-cleavage rises from 0.0386 to 0.0449.

Going from U20A G50C to C19G G40U, the self-cleavage falls from 0.131 to 0.0997.

First: C19U C49U
Second: C19G G38C
The self-cleavage of the first is higher: 0.131 for the first, 0.0639 for the second.

Compared with C19G G38U, C19G U72A is lower in self-cleavage: 0.0852 for the first, 0.0563 for the second.

Going from C19G U72G to C21A C63G, the self-cleavage rises from 0 to 0.0978.

First: U20G C75U
Second: U20G G55U
The self-cleavage of the first is lower: 0.0875 for the first, 0.332 for the second.

Going from C21A A70G to U20C G39C, the self-cleavage rises from 0 to 0.185.

Compared with C19G G73C, C21A G81A is higher in self-cleavage: 0.0244 for the first, 0.0647 for the second.

First: C21A C33G
Second: U20A C41G
The self-cleavage of the first is lower: 0.0554 for the first, 0.135 for the second.

Compared with U20C G54U, C19G G76C is lower in self-cleavage: 0.122 for the first, 0 for the second.

Going from U20A C33U to U20G U65A, the self-cleavage rises from 0 to 0.138.

Going from U20G U65C to C21G G52A, the self-cleavage falls from 0.222 to 0.0287.

First: C21G C41U
Second: U20G C41A
The self-cleavage of the first is lower: 0.0941 for the first, 0.145 for the second.

Compared with C19G U47G, U20C C41G is higher in self-cleavage: 0 for the first, 0.172 for the second.

Compared with U20G G76U, C21A G25U is lower in self-cleavage: 0.388 for the first, 0.113 for the second.

First: C21G A56C
Second: C21A C48G
The self-cleavage of the first is lower: 0.0386 for the first, 0.122 for the second.

Compared with C21A G31A, C19G U79G is higher in self-cleavage: 0.0482 for the first, 0.222 for the second.

Going from U20G C22U to U20G C22A, the self-cleavage rises from 0.145 to 0.185.

Compared with U20G C22G, C21A A42G is lower in self-cleavage: 0.266 for the first, 0.158 for the second.

Going from C21A G54A to C21A G73U, the self-cleavage rises from 0.0437 to 0.0528.

Compared with C21A G73A, C19G C84U is lower in self-cleavage: 0.161 for the first, 0.0504 for the second.

Going from U20G C44U to U20G C44G, the self-cleavage falls from 0.192 to 0.

Compared with C19U A56U, U20A C36G is higher in self-cleavage: 0.0863 for the first, 0.18 for the second.

Compared with U20A C36U, U20A C36A is higher in self-cleavage: 0 for the first, 0.135 for the second.

First: U20A A77U
Second: C19U G80A
The self-cleavage of the first is lower: 0 for the first, 0.0573 for the second.

U20G G25U and U20C U65A are the same in self-cleavage: 0.166 for the first, 0.166 for the second.

Going from U20A G76C to C19G C62G, the self-cleavage rises from 0 to 0.0791.

Going from U20A U46G to U20C C86U, the self-cleavage falls from 0.166 to 0.138.

First: U20G A42U
Second: U20A C30G
The self-cleavage of the first is lower: 0 for the first, 0.095 for the second.

Going from U20C G31C to C19U C84A, the self-cleavage falls from 0.0594 to 0.0554.

Going from C19U C84U to U20G A77G, the self-cleavage falls from 0.0811 to 0.0692.

Compared with U20G A77U, U20G A77C is lower in self-cleavage: 0.237 for the first, 0.178 for the second.

For C21A C32G, the self-cleavage was 0.0426.

Reference: the RNAGym collection of RNA variant scans (doi:10.7554/elife.80360)
